Assay: yeast display, Sf9 membrane polyspecificity reagent, FACS + sequencing; frameworks hold sequencing errors
Procedure, shortened: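 Sorting gates, low and high (top ~1%), were placed on anti-HA fluorescence to track expression and on streptavidin fluorescence to track reagent binding. A clone's polyreactivity label is taken from the gate it came out of. The reagent was 10% biotinylated, detergent-solubilized Sf9 membrane, applied for 1 hour at 4 °C to galactose-induced yeast display cells.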

Sequence | polyreactivity (PSR sort gate)
QVQLVESGGVLVQAGGSLRLSCAASGSIFDWYVMGWYRQAPGKERELVAAITSTGSTYYADSVKGRFTISLDNAKNTVYLQMNSLKPEDTAVYYCATSFYVYPSYYIMDYWGQGTQVTVSS | low polyreactivity
QVQLVESGGVLVQAGGSLRLSCAASGSIFILYAMGWYRQAPGKEREFVAAITYRGGSTKYADSVKGRFTISRDNAKNNVYLQMNRLKPEDTAVYYCAAGGYWRSPWGSVSRYGYWGQGTQVTVSS | high polyreactivity
QVQLVESGGVLVQAGGSLRLSCAASGSIFILYAMGWYRQAPGKERELVAAISSTGTTYYADSVKGRFTISRDNAKNTVYLQMNSLKPEDTAVYYCATDEHSSGRTPYDYWGQGTQVTVSS | low polyreactivity
QVQLVESGGVLVQAGGSLRLSCAASGSIFWPNSMGWYRQAPGKERELVAGISYSGGRTYYADSVKGRFTISRDNAKNTVYLQMNSLKPEDTAVYYCAALSRRDYNYWGQGTQVTVSS | high polyreactivity
QVQLVESGGVLVQAGGSLRLSCAASGSIFYRYAMGWYRQAPGKERELVAANSSNGVSTYYADSVKGRFTISRDNAKNTVYLQMNSLKPEDTAVYYCARDVYASPRLYTSRYNYWGQGTQVTVSS | low polyreactivity
QVQLVESGGVLVQAGGSLRLSCAASGSTFFVYAMGWYRQAPGKERELVAAISSRGSTYYADSVKGRFTISRDNAKNTVYLQMNSLKPEDTAVYYCAAEYTVSYLRMDYWGQGTQVTVSS | low polyreactivity
QVQLVESGGVLVQAGGSLRLSCAASGSTFLLNTMGWYRQAPGKERELVATITSTDDTNYADSVKGRFTISRDNAKNTVYLHMNSLKPEDTAVYYCAKGYLNYGRDWDFDSWGQGTQVTVSS | low polyreactivity
QVQLVESGGVLVQAGGSLRLSCAASGSTFPRNAMGWYRQAPGKERELVAAISGRGVRTYYADSVKGRFTISRDNAKNTVYLQMNSLKPEDTAVYYCAAERQPYRTSSYNYWGQGTQVTVSS | high polyreactivity
QVQLVESGGVLVQAGGSLRLSCAASGSTFQKYTMGWYRQAPGKERELVAGISGGGSTYYADSVKGRFTISRDNAKNTVYLQMNSLKPEDTAVYSCAAETLYTGPPPRYDYWGQGTQVTVSS | low polyreactivity
QVQLVESGGVLVQAGGSLRLSCAASGSTFSYYAMGWYRQAPGKERELVAAIDSSGGRTYYADSVKGRFTISRDNAKNTVYLHMNSLKPEDTAVYYCAADASYTEGMDYWGQGTQVTVSS | high polyreactivity
QVQLVESGGVLVQAGGSLRLSCAASGSTFTTNAMGWYRQAPGKERELVARISRIGASTHYADSVKGRFTISRDNAKNTVYLQMNSLKPEDTAVYYCAKSKGTPGNFGYWGQGTQVTVSS | low polyreactivity
QVQLVESGGVLVQAGGSLRLSCAASGYIFNKYVMGWYRPAPGKERELVAAISASGGSTYYADSVKGRFTLSRDNAKNTVYLQMNSLKPEDTAVYYCAATLYRRMDYWGQGTQVTVSS | high polyreactivity
QVQLVESGGVLVQAGGSLRLSCAATGSIFQYYAMGWSRQAPGKERELVATNRRSGGSTYYADSVKGRFTISRDTAKHTVFLQMNSLKPEDTAVYYCARRLYTWETGGWRYDSWGQGTQVTVSS | high polyreactivity
QVQLVESGGVLVQARGSLRLSCAASGRTFRYYAMGWYRQAPGQEREMVATISWSGGRTSYADSVKGRFTISRDNAKNTVYLQMNSLKPEDTAVYDCAVESWLDADDSYPDSILVDYWGQGTQVTVSS | low polyreactivity
QVQLVESGGVVVQAGGSLRLRCAASGITIPRYPMGWYRQAPGKERELVAAISPSGGGTYYADSVKGRFTISRDNAKNTVYLQMNSLKPEDTAVYYCAARYLGYLLSGYPPYDYWVQGTQVTVSS | high polyreactivity
QVQLVESGIGLVQAGGSLRLSCAASGSTCDFYAMGWYRPAPGKERELVAAITSDGRTNYADSVKGRFTISRDNAKNTVYLQMNSLKPEDTAVYYCAVTYGYEYDYWGQGTQVTVSS | low polyreactivity
QVQLVESGLGIVQAGGSLRLSCASSGSTFIFNTMVWYRQAPGKERELVAAIRLSGGSTYYADSVKGRFTISRDNAKNTVYLLINSLNPEDTAVYYCARRLATSGHTYDYWGQGTQVSVSS | low polyreactivity
QVQLVESGLGLVQAGGSLRLSCAASGFIFGSYAMGWYRQAPGKERELVAAISWSGGGTYYADSVKGRFTISRDNAKNTVYLQMNSLKPEDTAVYYCNARQFSGLGYWGQGTQVTVSS | high polyreactivity
QVQLVESGLGLVQAGGSLRLSCAASGSIFNIYAMGWYRQAPGKERELVAAITTGTRTYADSVKGLFTISRDNAKNTVYLLMNSLKPEDTAVDYCAAVSPTYPNTFYRYNYWGQGTQVTVSS | low polyreactivity
QVQLVESGLGLVQAGGSLRLSCAASGSIFQRYAMGWYRQAPGKEREFVAAISGRGGSTYYADSVKGRFTISRDNAKNTVYLQMNSLKPEDTAVYYCAADSSRFYGRPRFYYWGQGTQVTVSS | high polyreactivity
QVQLVESGLGLVQAGGSLRLSCAASGSTFYLYTMGWYRQAPGKERELVAAITYSGGRTYYADSVKGRFTISRDNAKNTVYLQMNSLKPEDTAVYYCAARRLPRPWTSTSDYWGQGTQVTVSS | high polyreactivity
QVQLVESGLGLVQAGGSLRLSCASSGSICSTYAMGLYRQAPGKERELVAAITTSGGRTYYADSVKGRFTISRDNAKNSVYLQMNSLKPEDTAVYFCNAVRGGRYGLDYWGQGTQVTVSS | high polyreactivity

Sequence | polyreactivity (PSR sort gate)
QVQLVESGPGLVQAGGSLRLSCASSGFIFRNYPMGWYRHAPGKERELVASISRGTSTNYADSVKGRFTISRDNAKNTVYLQRNSLKPEDTAVYYCNKRFYYHPFDYWGQGTQVTVSS | high polyreactivity
QVQLVESGRGLDQAGGSLRLSCAASGSTFESYVMGWYRQAPGKERELVADITKSGGNTYYADSVKGRFTISRDNWMITVYLLMNSLKPEDTAVYYCAVERGRRGMDYWGQGTQVTVSS | low polyreactivity
QVQLVESGRGLVEAGGSLRLICAASGFIIRYYAMGWYRQAPWKERELVAAISTSGGRTYYADSVKGRFTISRDNAKNTVYLQMNSLKPEDTAVYYCNAYTHNRYYWGQGTQVTVSS | high polyreactivity
QVQLVESGRGLVPAGGSLRLSCAASGSIFTDYAMGWSRKAPGKERELVATITWSDASTYYTDSVKGRFTISRDNAKNTVYLQMNSLKPEDTAVYYFARRSRYSKGYDYWGQGTQVTVSS | low polyreactivity
QVQLVESGRGLVQAGCSLRLSCAASGSILHYNAMGWYRQAPGKERELVASITNSGRTYYADSVKGRFTISRDNAKNTDYLHMNSLKPEDTAVYYCAAQGTWRYFGHRHNYWGQGTQVTVSS | high polyreactivity
QVQLVESGRGLVQAGGSLLLICAASGSTFYTNAMGWYRQAPGKERELVASITGGGSTYYADSVKGRFTISRDNAKNTVYLQMNSLKPEDTAVYYWAAVNFGGGWEFDSWGQGTKVTVSS | low polyreactivity
QVQLVESGRGLVQAGGSLPLRCAASGPTFPFNAMGRYRQAPGKERELVAAISWRDGRTYYADSVKGRFTISRDNAKNTVYLHMNSLKPEDTAVYYCNVVKRRSDWGMDYWGQGTQVSVSS | high polyreactivity
QVQLVESGRGLVQAGGSLPLSCAASGRTFPSNTMGWYRPAPGKERELVAAINRSGGTTYYADSVKGRCTISRDKAKNTVYLQINSLKPEDTAVYYCAVLSRYKACRKYDYWGQCTQVTVSS | high polyreactivity
QVQLVESGRGLVQAGGSLPLSCSASGSIFAYYTMGWYRQAPGKERDLVAAISETGGSTYYADSVKGRFTISRDIAKNTVYLQMNSLKPEDTAVYYCNADKYYYYTGQEYYPQYGYWGQGTQVSVSS | low polyreactivity
QVQLVESGRGLVQAGGSLRISCAASGFTFVRYVMGWYRQAPGTESELVAAISRSGGSTHYADSVKGRFTISRDNAKNTVYFQMTSLKPEDTAVYYCAAACPRWPGQGDYWGQGTQVTVSS | high polyreactivity
QVQLVESGRGLVQAGGSLRISCAASGRTFRHNVMGWYRQAAGQERELVAAITWGDASTYYADSVKGRFTISRDNAKNTVYLQMNSLKPEDTAVYYCAASDYRRSYDYWGQGTQVTVSW | low polyreactivity
QVQLVESGRGLVQAGGSLRISCAASGRTFYSYAMGWYRQAPGKERELVAAITSSGGRTYYADSVKGRFTISRDNAKNTVYLQMNSLKPEDTAVYYCNKLRRSPNSQYYYWGQGTQVTVSS | high polyreactivity
QVQLVESGRGLVQAGGSLRISCAASGSTFIFNTMGWYRQAPGKEMELVATITGDGRTNYADSVKGRFTISRDNAKNTVYLQMNSLKPEDTAVYYCDADGYDQYPLWSPPGDYWGQGTQVTVSS | low polyreactivity
QVQLVESGRGLVQAGGSLRLRCAASGSIFKSNVMGWYRPAPGKERELVAVITRSGGSTYYADSEKGRFTISRDNAKNTVYLQMNSLKPEDTAVYYCNRAAGYWAGYYHWGQGTQVTVSS | high polyreactivity
QVQLVESGRGLVQAGGSLRLRCAASGSTFNENVMGWYRQAPGKERELVAAIRTGSGSTYYADSVKGRFTISRDNAKNTVYLQMNSLKPEDTAVYYCYKDRGYSSLFSLFPGDYWGQGTQVTVSS | low polyreactivity
QVQLVESGRGLVQAGGSLRLSCAASGFTFAFYAMGWYRQAPGKERELVAAISRRGGSTTYADSVKGRFTISRDNAKNTVYLQMNSLIPEDSAVYYCNAVSTRNPGPDYYYWGQGTQVTVSS | high polyreactivity
QVQLVESGRGLVQAGGSLRLSCAASGFTFGVNAMGWYRQAPGKERELVAAITRSGGTTYYADSVKGRFTISRDNAKNTVYLQMNSLKPEDTAVYYCNRRARSYADDYWGQGTQVTVSS | high polyreactivity
QVQLVESGRGLVQAGGSLRLSCAASGFTFPDNTMGRYRQAPGKERVLVAGIRRRGGSTYYADSVKGRFTISRDHAKKTVSLQMNSLKPEDTAVYYCAASRAVTQYSGGGYWGQGTQVTVSS | high polyreactivity
QVQLVESGRGLVQAGGSLRLSCAASGFTFSYYAKGWYRQAPGKEREFVAAISWSGGSTYYADSVKGRFTLSRDNAKNTVYLQMNSLKPEDTAVYNSAARSTGGSPGRRFTRGYDYWGQGTQVTVSS | high polyreactivity
QVQLVESGRGLVQAGGSLRLSCAASGFTFYYYAMGRYRQAPGKERELVAAISTRDGNTYYADSVKARFTISRDNAKNTVYLQMKSLKTEVTAVYYCAAAYFRYYPYDYWGQGTLVTVSS | low polyreactivity
QVQLVESGRGLVQAGGSLRLSCAASGGIFTDYTMGWYRQAPGKERELVAAITWTGGSTYYADSVKGRFTISRDNAKNTFYLQMNSLKPEDSAVYYCAADDYWVNLVYWGQGTQVTVSS | low polyreactivity

— the nanobody polyreactivity screen of Harvey et al. (2022)
